The test system of data set [1] is macrophages and osteoblasts in BM and endosteum. As to conditions: previously confirmed; cited from earlier work. The source says:
Using a similar immunohistochemistry approach, we examined whether the distribution of mature osteoblasts and macrophages within the BM and endosteal environment was disturbed by treatment with POL5551. […] In contrast to G-CSF (Figures 6c and d), treatmen ...

The test system of another data set is human CXCR4. In words: Receptor binding: competition with CXCR4 antibody clones 12G5/1D9 on Ao.o1_hCXCR4 cells. As to conditions: 1 μM, concurrent incubation with antibody, 4 °C, 30 min, PBS/BSA 0.5%, flow cytometry, n=3. The source says:
(§1) (a, b) Analysis of the binding properties of POL5551 to CXCR4. […] CXCR4 Ab without agonist/antagonists (untreated) or isotypic control Ab (isotype) were used as positive and negative controls.
CXCR4 Ab without agonist/antagonists (untreated) or isotypic control Ab (isotype) were used as positive and negative controls.

The subject of data set [2] is BM cells (CFU-C) migrating towards CXCL12. Description: Transwell migration of BM CFU-C towards CXCL12. In kind it is cell-based, mouse. As to conditions: CXCL12 100 ng/ml, 4 h. The procedure: (§2) Input cells and cells from the lower chamber were plated into a colony assay; colony-forming unit culture (CFU-C) migration is expressed as the percent of migrated CFU-C of total CFU-C contained in the inoculum (input).
as §1

In data set [3] the test system is BM cells stimulated with CXCL12. In words: F-actin polymerization assay after CXCL12 stimulation. Format: cell-based, mouse. The conditions noted are these: pretreatment with 1 μM; CXCL12 100 ng/ml, 37 °C, n=3.
Source text: F-actin was then stained with AlexaFluor568-conjugated phalloidin (Molecular Probes, Eugene, OR, USA) followed by flow cytometric analysis of the relative staining intensity.
as §1

The test system of data set [4] is hematopoietic progenitor cells (CFU-C) in C57BL/6 mice. Description: CFU-C mobilization in C57BL/6 mice. In kind it is in vivo. On the procedure:
(§3) POL5551 (Polyphor Ltd, Allschwil, Switzerland) was suspended in saline and either injected as bolus intraperitoneally (i.p.) or intravenously (i.v.) (0.5–100 μg/g body weight) or filled into continuous-release osmotic minipumps (model 2001, Alzet, Palo Alto, CA, USA), which were implanted under general anesthesia into a dorsal subcutaneous pouch. Mono-biotinylated POL5551 (Polyphor Ltd) was suspended in PBS (Life Technologies GmbH, Darmstadt, Germany) and injected i.p. rhG-CSF (Granocyte, Chugai, Frankfurt, Germany) was suspended in dH20 and diluted in saline to a final concentration of 0.5 μg/μl for i.p. injection. Mice received G-CSF injections every 12 h at a dose of 100 μg/kg for a total of nine doses i.p., referred to as ‘standard regimen' throughout the manuscript. Subsequent blood withdrawal and/or administration of POL5551 were performed directly after the last G-CSF injection on day 5.
(§4) For enumeration of CFU-C, aliquots of cells were incubated in duplicate in commercially available growth-factor-supplemented methyl cellulose medium for mouse CFU-C (Stem Cell Technologies, Vancouver, BC, USA or Cell Systems) as described.[23], [32] CFU-C (BFU-E, CFU-GM and CFU-GEMM) were enumerated after 6–8 days.

Data set [5] has as its system hematopoietic progenitor cells (CFU-C) in diabetic C57BL/6 mice. In words: CFU-C mobilization in Streptozotocin-induced diabetic mice. Format: in vivo. The procedure:
as §3, §4

Data set [6] concerns hematopoietic progenitor cells (CFU-C). Description: Co-mobilization with G-CSF. In kind it is in vivo, mouse. As to conditions: Plerixafor 5 or 10 mg/kg i.p. at end of standard regimen of G-CSF, n=6–8. The procedure:
as §3, §4
(§5) Circulating CFU-Cs were enumerated at the indicated time points (mean±s.e.m., n=6–8 mice). […]

For data set [7] the test system is unchanged. In words: Co-mobilization with Cyclophosphamide (CY). Format: in vivo, mouse. The conditions noted are these: 5 mg/kg i.p. on day 8 after CY 200 mg/kg i.p. On the procedure: as §3, §4, §5
For data set [8] the following is noted: mouse, in vivo.
The subject of data set [9] is hematopoietic progenitor cells (CFU-C) in C57BL/6 mice. As to conditions: Plerixafor in mice; cited from earlier work. The procedure: In this study, in vitro and in vivo properties of the novel CXCR4 antagonist POL5551 as a mobilizing agent were evaluated.
For data set [10], the system named is hematopoietic progenitor cells (CFU-C) in DBA/2 mice. Description: CFU-C mobilization, DBA/2 relative to C57BL/6 mice. In kind it is in vivo. As to conditions: G-CSF standard regimen. The procedure:
as §3, §4

A further data set has as its system white blood cells. Description: Mobilization of mature leukocyte subsets. In kind it is in vivo, C57BL/6 mice. As to conditions: POL5551 4 h i.p., G-CSF standard regimen, Plerixafor 5 mg/kg i.p. 1 h. The procedure: (§6) Cell labeling was performed according to standard protocols using established marker panels for identification of different subsets in mouse hematopoietic tissues. Antibodies used in this study are detailed in Supplementary Methods. Subsequent acquisition and analysis were performed on a BD FACSCanto II cytometer with the FACSDiva software (BD Biosciences). Some data were further analyzed using the FlowJo software (Tree Star, Inc., Ashland, OR, USA). Cell isolation by flow sorting was performed on a BD FACS Aria II (BD Biosciences).
Figure S3: Mobilization of mature cell subsets by POL5551. A: Time-response of POL5551 mediated mobilization of WBCs. C57BL/6 mice received POL5551 (5 mg/kg) i.p. and blood was drawn at the indicated time points for blood count analysis (mean±SEM from 5 mice). B: Relative distribution of leukocytes in mobilized blood specimen. Blood was drawn before (baseline) and 4 hours after POL5551 injection i.p. (mean±SEM, n=5). […] C: Mobilization of T-, B-cells, monocytes and granulocytes. Blood composition was analyzed 4 hours after POL5551 injection (30 mg/kg, i.p. mean±SEM, n=6). […] D: Assessment of mobilized T-cell subsets.

Data set [11] has as its system PB-mobilized CFU-C migrating towards CXCL12. Description: Ex vivo migration of mobilized CFU-C towards CXCL12. In kind it is cell-based, mouse. As to conditions: G-CSF standard regimen; n=5–8. On the procedure: as §2
The subject of another data set is c-kit+ cells. In words: Immunophenotype of c-kit+ cells. Format: in vivo, C57BL/6 mice. As to conditions: G-CSF standard regimen, after 9th dose, mean +/- SEM, n=5. The procedure:
as §6
C57BL/6 mice were mobilized with a bolus injection of POL5551 (5 or 30 mg/kg, i.p., n=5) or standard regimen of G-CSF (n=5). Saline treated animals (n=5) served as steady-state BM and PB donors. […] Percentage of positive cells was evaluated in comparison to isotype control. Mean fluorescence intensity was analyzed among c-kit+ cells.

The test system of data set [12] is long-term repopulating HSCs. Description: Limiting dilution competitive repopulating unit (CRU) assay. Format: in vivo, mouse. As to conditions: POL5551 30 mg/kg i.p.; G-CSF standard regimen; 16 weeks, n=5–10. The procedure: To determine the frequency of long-term repopulating HSCs in POL5551 versus G-CSF-mobilized blood, a limiting dilution CRU assay was performed.[34] Lethally irradiated CD45.2 hosts, 5–10 per group, received i.v. grafts consisting of limiting volumes (2.5, 5.0 and 10 μl) of CD45.1 POL5551 or G-CSF-mobilized blood cells together with 2.5 × 10^5 CD45.2 BM competitor cells. After 16 weeks, multilineage contribution of the CD45.1 graft-derived leukocytes was measured using flow cytometry. Animals with evidence of mobilized blood-derived (that is, CD45.1+) Gr1+, CD11b+, B220+ and CD3+ cells (⩾0.5% for each lineage) were considered positive for donor cell engraftment. CRU (LTRC) frequency was calculated using the LCALC software (Stem Cell Technologies).
Figure 5 Mobilization of CRU by POL5551. CRU frequency in POL5551 (30 mg/kg)-mobilized blood was determined using a CRU assay and compared with the CRU frequency in G-CSF (standard regimen)-mobilized blood. […] CRU engraftment, defined as multilineage engraftment of ⩾0.5% per lineage was quantified 16 weeks after transplantation. […] The mean CRU (LTRC) frequency (b) was calculated using Poisson's statistic (LCALC software, Stem Cell Technologies) (mean±upper/lower frequency).

As for `O=P1(N(CCCl)CCCl)NCCCO1` (stereo not drawn) [CY, Cyclophosphamide], the “Mobilization through collapse of HSC niche cellular components” value in data set [1] is listed as “initiates collapse of HSC niche cellular components”.
On to `c1cc(CN2CCCNCCNCCCNCC2)ccc1CN1CCCNCCNCCCNCC1` [Plerixafor], for which, in the data set with human CXCR4, the “Binding to N-terminus / interference with 1D9 binding” value is listed as “without affecting the binding of 1D9” and the “Binding to extracellular loops / interference with 12G5 binding” value is given as “interfered with 12G5 binding”. In addition, the “Inhibition of CXCL12-induced transwell migration of ssBM CFU-C” value in [2] (pre-incubation with 1 μM, n=3) was “completely blocked”. The “Inhibition of CXCL12-induced F-actin polymerization” value in data set [3] is “did not show an inhibitory effect”. In addition, the “Circulating CFU-C” value in [4] (Plerixafor 5 mg/kg i.p., n=4) amounted to 1300 CFU-C/ml. In [5] (Plerixafor 10 mg/kg i.p. after the ninth G-CSF dose, 1 h, n=3), the “Rescue of diabetes-induced hyporesponsiveness to G-CSF” value is listed as “could rescue diabetes-induced hyporesponsiveness to G-CSF”. For the same molecule, the “CFU-C mobilization in diabetic vs healthy mice” value in data set [5] (Plerixafor 10 mg/kg i.p., 1 h, n=3) is “markedly decreased (to approximately one-fourth)”. Also, the “Mobilization in combination with G-CSF” value in data set [6] is reported as “noticeably enhanced”. Also, in [7], the “CFU-C mobilized in combination with CY” value is reported as > 40 000 CFU-C per ml PB and the “Synergism with CY compared with CY plus G-CSF” value is given as “more pronounced than the combination of CY plus G-CSF”. Further, the Toxicity limiting dose entry in [8] is reported as “could not be tested at doses >10 mg/kg because of its toxicity”. In addition, the “Dose at which mobilization peaks” value in [9] is 5 mg/kg.
Consider “CXCL12: the natural ligand, the chemokine CXCL12”, for which the “CXCL12-induced transwell migration of ssBM CFU-C” value in data set [2] (percent of input CFU-C, no inhibitor, n=13) is reported as roughly 6%.

B1: G-CSF: rhG-CSF (Granocyte, Chugai, Frankfurt, Germany) (protein, UniProt P09919 31-207, looked up)
Granulocyte …: TPLGPASSLPQSFLLKCLEQVRKIQGDGAALQEKLVSECATYKLCHPEELVLLGHSLGIPWAPLSSCPSQALQLAGCLSQLHSGLFLYQGLLQALEGISPELGPTLDTLQLDVADFATTIWQQMEELGMAPALQPTQGAMPAFASAFQRRAGGVLVASHLQSFLEVSYRVLRHLAQP
As for B1, the “Circulating CFU-C” value in [4] (G-CSF standard regimen (100 μg/kg every 12 h, nine doses i.p.), n=58) worked out at 3800 CFU-C/ml. Moreover, the “Mobilization in DBA/2 relative to C57BL/6 mice” value in data set [10] is listed as “at least six times more CFU-C in DBA/2 than in C57BL/6 mice”. For the same molecule, the “CFU-C mobilization in diabetic vs healthy mice” value in [5] (G-CSF standard regimen, n=6) is “markedly decreased (to approximately one-fourth)”. The “Frequency of neutrophils in mobilized vs non mobilized blood” value in the data set with white blood cells is given as “most prominently in G-CSF-mobilized”. Further, the “Responsiveness of mobilized CFU-C to CXCL12” value in [11] is recorded as “to a similar degree as was also observed for G-CSF-mobilized blood”. In the data set on c-kit+ cells, the “CD26, RMFI of c-kit+ cells” value is 291 +/- 56; the “CD26, positive c-kit+ cells” value is 1,6 +/- 0,3%; the “CD29, RMFI of c-kit+ cells” value is 1587 +/- 267; the “CD29, positive c-kit+ cells” value is 38,0 +/- 6,2%. For the same molecule, in the data set with c-kit+ cells, the “CD49e, RMFI of c-kit+ cells” value is on record as 772 +/- 39; the “CD49e, positive c-kit+ cells” value was 55,2 +/- 3,5%; the “CD49f, RMFI of c-kit+ cells” value was 642 +/- 104; the “CD49f, positive c-kit+ cells” value is on record as 24,2 +/- 4,7%. Further, in the data set on c-kit+ cells, the “CD49d, RMFI of c-kit+ cells” value was 1179 +/- 58; the “CD49d, positive c-kit+ cells” value is on record as 72,6 +/- 3,6%; the “VCAM1, RMFI of c-kit+ cells” value is 384 +/- 73; the “VCAM1, positive c-kit+ cells” value is given as 0,7 +/- 0,1%. The “CRU frequency in mobilized blood” value in data set [12] is on record as 34 CRU/ml. Moreover, the “Mobilization through collapse of HSC niche cellular components” value in data set [1] is listed as “initiates collapse of HSC niche cellular components”.
